This note sets out measurements from patent US20250188188A1 (DIANTHUS THERAPEUTICS OPCO, published 2025).

First the molecules themselves.
T1: active human C1s purified from human serum (CompTech, Tyler, TX, catalog number A104) (human, UniProt P09871 16-437; P09871 438-688)
T1 construct: Serum-derived material, biotinylated for the ELISA; also called human active C1s; active C1s
T1 sequence 1: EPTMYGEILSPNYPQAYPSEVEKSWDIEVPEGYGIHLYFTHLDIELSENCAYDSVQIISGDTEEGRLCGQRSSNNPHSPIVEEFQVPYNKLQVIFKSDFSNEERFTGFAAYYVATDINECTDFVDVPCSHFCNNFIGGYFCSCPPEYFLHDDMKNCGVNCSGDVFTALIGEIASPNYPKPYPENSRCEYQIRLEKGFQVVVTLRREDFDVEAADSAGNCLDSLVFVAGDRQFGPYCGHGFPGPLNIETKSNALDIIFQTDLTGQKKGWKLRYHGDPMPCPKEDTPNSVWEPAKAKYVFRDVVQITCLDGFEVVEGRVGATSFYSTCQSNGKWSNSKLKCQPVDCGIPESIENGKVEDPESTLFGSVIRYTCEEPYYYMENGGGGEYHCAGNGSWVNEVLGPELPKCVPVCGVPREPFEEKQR
T1 sequence 2: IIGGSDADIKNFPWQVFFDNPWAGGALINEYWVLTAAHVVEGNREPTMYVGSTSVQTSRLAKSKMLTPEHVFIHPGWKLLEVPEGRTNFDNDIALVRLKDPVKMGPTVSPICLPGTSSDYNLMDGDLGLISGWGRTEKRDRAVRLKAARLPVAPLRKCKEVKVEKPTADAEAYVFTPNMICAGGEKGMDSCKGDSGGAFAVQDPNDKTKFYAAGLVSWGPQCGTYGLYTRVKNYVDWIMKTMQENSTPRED

B1: MAB22 (antibody, V domains shown)
VH: EVQLVESGGGVVRPGGSLRLSCAASGFTFDDYGMSWVRQAPGKGLEWVSGINWEGGSTGYADSVKGRFTISRDNAKNSLYLQMNSLRAEDTALYYCARDEQLGGKYYYYYYMDVWGKGTTVTVSS
VL: DIQMTQSPSSLSASVGDRVTITCRASQGIRNDLGWYQQKPGKAPKRLIYTASNLQSGVPSRFSGSGSGTEFTLTISSLQPEDFATYYCLQYRSHPLTFGGGTKVEIK
notes: IgG
B2: MAB28 (antibody, V domains shown)
VH: B1 VH with T69S, K105L, Y106K
VL: B1 VL with R92H, H94Y, T97R
notes: IgG
B3: MAB30 (antibody, V domains shown)
VH: B1 VH with K105R, Y106H
VL: B1 VL with R92N, S93A, H94Y, T97I
notes: IgG
B4: MAB25 (antibody, V domains shown)
VH: B1 VH with K105I, Y106K
VL: B1 VL with R92K, S93Q, H94Y
notes: IgG
B5: MAB26 (antibody, V domains shown)
VH: B1 VH with T69S, K105L, Y106K
VL: B1 VL with Y91T, R92N, S93I, H94Y
notes: IgG
B6: MAB24 (antibody, V domains shown)
VH: B1 VH with K105T, Y106T
VL: B1 VL with Y91T, R92N, S93I, H94Y
notes: IgG
B7: MAB9 (antibody, V domains shown)
VH: QVQLVESGGGLVKPGGSLRLSCAASGFTFSDYYMSWIRQAPGKGLEWVSYISRSGSTKYYADSVKGRFTISRDNAKNSLYLQMNSLRAEDTAVYYCARDENYALDWWGQGTLVTVSS
VL: DIQMTQSPSSLSASVGDRVTITCQASQDISNYLNWYQQKPGKAPKLLIYDASNLETGVPSRFSGSGSGTDFTFTISSLQPEDIATYYCQHYEDYPLTFGGGTKVEIK
notes: The IgG4 YTE form is entered separately as IgG4-MAB9
B8: MAB3 (antibody, V domains shown)
VH: QVQLVESGGGLVKPGGSLRLSCAASGFTFSDYYMSWIRQAPGKGLEWVSYISRSGSTKYYADSVKGRFTISRDNAKNSLYLQMNSLRAEDTAVYYCARDETDYAFDEWGQGTLVTVSS
VL: B7 VL with Q89K, H90Q
notes: IgG
B9: MAB4 (antibody, V domains shown)
VH: B8 VH with T101S, D102Q, F105L, E107Y
VL: B7 VL with Q89H, H90Q
notes: The IgG4 YTE form is entered separately as IgG4-MAB4
B10: MAB1 (antibody, V domains shown)
VH: B8 VH with E100Q, T101E, F105L, E107Y
VL: B7 VL with Q89E, H90Q
notes: 191g-derived clone expressed as IgG in 293 cells
B11: MAB2 (antibody, V domains shown)
VH: B8 VH with A104G, F105W, E107Y
VL: B7 VL with Q89K, H90Q
notes: IgG

Changes are numbered by the printed parent chain.

The target of the test is T1, active human C1s purified from human …. Put plainly: SPR, antibody captured via anti-human Fc, C1s in solution. (SPR reads the build-up and loss of mass on a sensor chip optically.)
Broadly, the Kd is a measure of binding affinity in units of concentration. A low value points to tighter binding. What is called koff is a measure of how fast the partners let go of each other. Read a low koff as slow dissociation. Broadly, the kon is a measure of how fast the partners come together. Higher therefore signals faster complex formation. B1 had a Kd of 4.17 nM, a koff of 0.000335 s⁻¹ and a kon of 80400 M⁻¹ s⁻¹.
On the same counts, the results for B2 are 2.89 nM, 0.000409 s⁻¹ and 141000 M⁻¹ s⁻¹.
B3: the Kd was 6.01 nM, the koff worked out at 0.000688 s⁻¹ and the kon is 115000 M⁻¹ s⁻¹.
For the molecule B4, the Kd stood at 5.57 nM, the koff stood at 0.000621 s⁻¹ and the kon came out at 111000 M⁻¹ s⁻¹.
On the same counts, the results for B5 are 6.52 nM, 0.00055 s⁻¹ and 84500 M⁻¹ s⁻¹.
In the case of B6, the Kd came out at 3.49 nM, the koff is 0.000328 s⁻¹ and the kon worked out at 93900 M⁻¹ s⁻¹.
B7 had a Kd of 0.306 nM, a koff of 0.000127 s⁻¹ and a kon of 414000 M⁻¹ s⁻¹.
For the molecule B8, binding was characterised by a dissociation constant (Kd) of 0.932 nM, the koff was found to be 0.000209 s⁻¹ and the kon turned out to be 224000 M⁻¹ s⁻¹.
On the same counts, the results for B9 are 1.22 nM, 0.000232 s⁻¹ and 190000 M⁻¹ s⁻¹.
As for B10, the Kd came out at 0.95 nM, the koff is 0.000255 s⁻¹ and the kon came out at 268000 M⁻¹ s⁻¹.
As to B11, binding was put at a Kd of 1.83 nM, the koff stood at 0.000215 s⁻¹ and the kon turned out to be 118000 M⁻¹ s⁻¹.
